Molecular target: HLA-B*07:02
Assay: IEDB peptide-MHC binding, purified MHC/competitive/radioactivity; ≥ and ≤ were set here for values at or beyond the usual limits of such assays
Settings: source organism: Bordetella pertussis

Sequence	IC50 [µM]
RTHGVGASL	1.58
LAAGAGLTL	7.38
GIVIPPKAL	69.6
RPQITDAVT	16.3
CFGKDLKRP	69.6

Molecular target: HLA-B*53:01
Assay: as above
Settings: source organism: Bordetella pertussis

Sequence	IC50 [µM]
VPVSEHCTV	69.9
LAAGAGLTL	58.7

Molecular target: HLA-B*35:01
Assay: as above
Settings: source organism: Bordetella pertussis

Sequence	IC50 [µM]
PDAHVPFCF	69.9
APNALAWAL	6.26
LFTQQGGAY	69.9

Molecular target: HLA-A*02:01
Assay: as above
Settings: source organism: Bordetella pertussis

Sequence	IC50 [µM]
ITSYVGFSV	4.39
IVVEAGELV	9.86
WVMTDNSNV	29.2
RLRKMLYLI	14.9

Molecular target: HLA-B*44:03
Assay: as above
Settings: source organism: Bordetella pertussis

Sequence	IC50 [µM]
GELMAAQVA	0.572
MESNKDIVI	9.93

From the Immune Epitope Database (IEDB)
